B1: TRIM63 (parent)
chain: ANPYWTSRGSSVSMSGGRFRCPTC
B2: TPD52L1 (parent)
chain: ISKKFGDMSYSIRHSISMPAMRNS

Variants of: B1
Test: protein stability index of a GFP-peptide fusion (GPS, HEK-293T) (PSI 1-6); higher = more stable
Conditions: c terminus: a fixed tail appended
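Note: lentivirally expressed fusions sorted by FACS into six bins by GFP to DsRed ratio, PSI derived from sequencing read proportions per bin multiplied by bin number.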

Point of comparison: ANPGWTSRGSSVSMSGGRFRCPTC, protein stability index 1.36. Against it:
- ANPDWTSRGSSVSMSGGRFRCPTC — higher, 2.51
- ANPCWTSRGSSVSMSGGRFRCPTC — higher, 2.92
- ANPFWTSRGSSVSMSGGRFRCPTC — higher, 1.57
- ANPAWTSRGSSVSMSGGRFRCPTC — lower, 1.33
- ANPEWTSRGSSVSMSGGRFRCPTC — higher, 2.1
- ANPIWTSRGSSVSMSGGRFRCPTC — higher, 2.8
- ANPKWTSRGSSVSMSGGRFRCPTC — higher, 2.09
- KNPYWTSRGSSVSMSGGRFRCPTC — higher, 2.1
- FNPYWTSRGSSVSMSGGRFRCPTC — higher, 2.58
- NNPYWTSRGSSVSMSGGRFRCPTC — higher, 2.18
- SNPYWTSRGSSVSMSGGRFRCPTC — higher, 2.69
- DNPYWTSRGSSVSMSGGRFRCPTC — higher, 1.67
- HNPYWTSRGSSVSMSGGRFRCPTC — higher, 1.88
- TNPYWTSRGSSVSMSGGRFRCPTC — higher, 1.88
- MNPYWTSRGSSVSMSGGRFRCPTC — higher, 2.07
- VNPYWTSRGSSVSMSGGRFRCPTC — higher, 2.21
- PNPYWTSRGSSVSMSGGRFRCPTC — lower, 1.28
- LNPYWTSRGSSVSMSGGRFRCPTC — higher, 1.89
- INPYWTSRGSSVSMSGGRFRCPTC — higher, 1.53
- QNPYWTSRGSSVSMSGGRFRCPTC — higher, 1.49
- ENPYWTSRGSSVSMSGGRFRCPTC — higher, 2.31
- GNPYWTSRGSSVSMSGGRFRCPTC — higher, 1.66
- RNPYWTSRGSSVSMSGGRFRCPTC — higher, 2.08
- ANYYWTSRGSSVSMSGGRFRCPTC — higher, 2.38
- ANEYWTSRGSSVSMSGGRFRCPTC — higher, 1.91
- ANIYWTSRGSSVSMSGGRFRCPTC — higher, 2.14
- ANRYWTSRGSSVSMSGGRFRCPTC — higher, 1.84
- ANNYWTSRGSSVSMSGGRFRCPTC — lower, 1.07
- ANFYWTSRGSSVSMSGGRFRCPTC — higher, 2.13
- ANMYWTSRGSSVSMSGGRFRCPTC — higher, 1.54
- ANAYWTSRGSSVSMSGGRFRCPTC — higher, 2.08
- ANGYWTSRGSSVSMSGGRFRCPTC — lower, 1.18
- ANSYWTSRGSSVSMSGGRFRCPTC — the same, 1.36
- ANHYWTSRGSSVSMSGGRFRCPTC — higher, 2.82
- ANTYWTSRGSSVSMSGGRFRCPTC — higher, 2.08
- ANQYWTSRGSSVSMSGGRFRCPTC — higher, 2.2
- AKPYWTSRGSSVSMSGGRFRCPTC — higher, 1.59
- ATPYWTSRGSSVSMSGGRFRCPTC — higher, 1.73
- AHPYWTSRGSSVSMSGGRFRCPTC — higher, 2.3
- APPYWTSRGSSVSMSGGRFRCPTC — higher, 1.76
- ALPYWTSRGSSVSMSGGRFRCPTC — higher, 1.37
- AGPYWTSRGSSVSMSGGRFRCPTC — higher, 1.84
- AQPYWTSRGSSVSMSGGRFRCPTC — lower, 1.23
- ASPYWTSRGSSVSMSGGRFRCPTC — higher, 1.89
- AIPYWTSRGSSVSMSGGRFRCPTC — higher, 3.56
- AAPYWTSRGSSVSMSGGRFRCPTC — higher, 2.08
- AFPYWTSRGSSVSMSGGRFRCPTC — higher, 1.6
- AYPYWTSRGSSVSMSGGRFRCPTC — higher, 2.14
- AEPYWTSRGSSVSMSGGRFRCPTC — higher, 2.51
- ARPYWTSRGSSVSMSGGRFRCPTC — higher, 2.05
- AMPYWTSRGSSVSMSGGRFRCPTC — higher, 1.6
- ACPYWTSRGSSVSMSGGRFRCPTC — higher, 2.43

Variants of: B2
Test: as above
Conditions: c terminus: a fixed tail appended

Point of comparison: ISKKFGDMSYSIRHSISMPAMRNF, protein stability index 1.57. Against it:
- ISKKFGDMSYSIRHSISMPAMRES — higher, 2.28
- ISKKFGDMSYSIRHSISMPAMRLS — higher, 1.98
- ISKKFGDMSYSIRHSISMPAMRRS — higher, 2.14
- ISKKFGDMSYSIRHSISMPAMRWS — higher, 2.39
- ISKKFGDMSYSIRHSISMPAMRQS — higher, 2.29
- ISKKFGDMSYSIRHSISMPAMRFS — higher, 1.84
- ISKKFGDMSYSIRHSISMPAMRCS — higher, 1.91
- ISKKFGDMSYSIRHSISMPAMRDS — higher, 2.32
- ISKKFGDMSYSIRHSISMPAMRGS — higher, 2.42
- ISKKFGDMSYSIRHSISMPAMRYS — lower, 1.51
- ISKKFGDMSYSIRHSISMPAMRHS — higher, 2.19
- ISKKFGDMSYSIRHSISMPAMRIS — higher, 1.77
- ISKKFGDMSYSIRHSISMPAMRVS — higher, 1.84
- ISKKFGDMSYSIRHSISMPAMRKS — higher, 2.48
- ISKKFGDMSYSIRHSISMPAMRAS — higher, 1.86
- ISKKFGDMSYSIRHSISMPAMRPS — higher, 2.46
- ISKKFGDMSYSIRHSISMPAMRTS — higher, 2.31
- ISKKFGDMSYSIRHSISMPAMRMS — higher, 2.05
- ISKKFGDMSYSIRHSISMPAMRSS — higher, 2.26
- ISKKFGDMSYSIRHSISMPAMINS — higher, 1.85
- ISKKFGDMSYSIRHSISMPAMFNS — higher, 2.22
- ISKKFGDMSYSIRHSISMPAMMNS — higher, 2.25
- ISKKFGDMSYSIRHSISMPAMTNS — higher, 2.6
- ISKKFGDMSYSIRHSISMPAMHNS — higher, 2.56
- ISKKFGDMSYSIRHSISMPAMGNS — higher, 2.66
- ISKKFGDMSYSIRHSISMPAMKNS — higher, 2.75
- ISKKFGDMSYSIRHSISMPAMDNS — higher, 2.52
- ISKKFGDMSYSIRHSISMPAMVNS — higher, 1.8
- ISKKFGDMSYSIRHSISMPAMCNS — higher, 1.97
- ISKKFGDMSYSIRHSISMPAMLNS — higher, 1.82
- ISKKFGDMSYSIRHSISMPAMANS — higher, 2.23
- ISKKFGDMSYSIRHSISMPAMYNS — higher, 1.88
- ISKKFGDMSYSIRHSISMPAMNNS — higher, 2.79
- ISKKFGDMSYSIRHSISMPAMQNS — higher, 2.3
- ISKKFGDMSYSIRHSISMPAMWNS — higher, 1.65
- ISKKFGDMSYSIRHSISMPAMSNS — higher, 2.13
- ISKKFGDMSYSIRHSISMPAMPNS — higher, 2.34
- ISKKFGDMSYSIRHSISMPAMENS — higher, 2.18
- ISKKFGDMSYSIRHSISMWAMRNS — higher, 1.71
- ISKKFGDMSYSIRHSISMYAMRNS — higher, 1.7
- ISKKFGDMSYSIRHSISMRAMRNS — higher, 1.9
- ISKKFGDMSYSIRHSISMGAMRNS — higher, 2.6
- ISKKFGDMSYSIRHSISMLAMRNS — higher, 2.35
- ISKKFGDMSYSIRHSISMIAMRNS — higher, 2.6
- ISKKFGDMSYSIRHSISMCAMRNS — higher, 1.76
- ISKKFGDMSYSIRHSISMKAMRNS — higher, 1.83
- ISKKFGDMSYSIRHSISMVAMRNS — higher, 1.87
- ISKKFGDMSYSIRHSISMEAMRNS — higher, 2.47
- ISKKFGDMSYSIRHSISMDAMRNS — higher, 2.2
- ISKKFGDMSYSIRHSISMAAMRNS — higher, 1.98
- ISKKFGDMSYSIRHSISMNAMRNS — higher, 2.04
- ISKKFGDMSYSIRHSISMSAMRNS — higher, 1.97
- ISKKFGDMSYSIRHSISMFAMRNS — higher, 1.87
- ISKKFGDMSYSIRHSISMQAMRNS — higher, 2.33
- ISKKFGDMSYSIRHSISMHAMRNS — higher, 2.01
- ISKKFGDMSYSIRHSISMTAMRNS — higher, 2.17
- ISKKFGDMSYSIRHSISMMAMRNS — higher, 2.58
- ISKKFGDMSYSIRHSIYMPAMRNS — higher, 1.98
- ISKKFGDMSYSIRHSIWMPAMRNS — lower, 1.27
- ISKKFGDMSYSIRHSISGPAMRNS — higher, 2.42
- ISKKFGDMSYSIRHSISCPAMRNS — higher, 2.21
- ISKKFGDMSYSIRHSISRPAMRNS — higher, 2.34
- ISKKFGDMSYSIRHSISHPAMRNS — higher, 2.6
- ISKKFGDMSYSIRHSISNPAMRNS — higher, 2.28
- ISKKFGDMSYSIRHSISKPAMRNS — higher, 2.31
- ISKKFGDMSYSIRHSISQPAMRNS — higher, 2.77
- ISKKFGDMSYSIRHSISWPAMRNS — higher, 1.7
- ISKKFGDMSYSIRHSISFPAMRNS — higher, 1.8
- ISKKFGDMSYSIRHSISLPAMRNS — higher, 2.01
- ISKKFGDMSYSIRHSISIPAMRNS — higher, 2.53
- ISKKFGDMSYSIRHSISYPAMRNS — higher, 1.87
- ISKKFGDMSYSIRHSISAPAMRNS — higher, 2.64
- ISKKFGDMSYSIRHSISPPAMRNS — higher, 2.64
- ISKKFGDMSYSIRHSISSPAMRNS — higher, 2.05
- ISKKFGDMSYSIRHSISVPAMRNS — higher, 1.83
- ISKKFGDMSYSIRHSISDPAMRNS — higher, 2.88
- ISKKFGDMSYSIRHSISEPAMRNS — higher, 2.74
- ISKKFGDMSYSIRHSISTPAMRNS — higher, 2.58
- ISKKFGDMSYSIRHSISMPAPRNS — higher, 2.54
- ISKKFGDMSYSIRHSISMPAIRNS — higher, 2.39
- ISKKFGDMSYSIRHSISMPASRNS — higher, 2.46
- ISKKFGDMSYSIRHSISMPAERNS — higher, 3.36
- ISKKFGDMSYSIRHSISMPATRNS — higher, 2.49
- ISKKFGDMSYSIRHSISMPAQRNS — higher, 2.33
- ISKKFGDMSYSIRHSISMPACRNS — higher, 3.31
- ISKKFGDMSYSIRHSISMPAYRNS — higher, 2.46
- ISKKFGDMSYSIRHSISMPARRNS — higher, 2.57
- ISKKFGDMSYSIRHSISMPAVRNS — higher, 2.53
- ISKKFGDMSYSIRHSISMPALRNS — higher, 2.27
- ISKKFGDMSYSIRHSISMPAARNS — higher, 2.82
- ISKKFGDMSYSIRHSISMPANRNS — higher, 2.68
- ISKKFGDMSYSIRHSISMPAKRNS — higher, 3.21
- ISKKFGDMSYSIRHSISMPADRNS — higher, 2.75
- ISKKFGDMSYSIRHSISMPAFRNS — higher, 2.31
- ISKKFGDMSYSIRHSISMPAGRNS — higher, 2.4
- ISKKFGDMSYSIRHSISMPAWRNS — higher, 2.79
- ISKKFGDMSYSIRHSISMPAHRNS — higher, 2.46
- ISKKFGDMSYSIRHSISMPAMRNT — higher, 2.74
- ISKKFGDMSYSIRHSISMPAMRNG — higher, 2.13
- ISKKFGDMSYSIRHSISMPAMRNH — higher, 2.42
- ISKKFGDMSYSIRHSISMPAMRNI — higher, 1.81
- ISKKFGDMSYSIRHSISMPAMRNN — higher, 2.33
- ISKKFGDMSYSIRHSISMPAMRNP — higher, 2.33
- ISKKFGDMSYSIRHSISMPAMRNC — higher, 1.92
- ISKKFGDMSYSIRHSISMPAMRNL — higher, 1.96
- ISKKFGDMSYSIRHSISMPAMRNK — higher, 2.21
- ISKKFGDMSYSIRHSISMPAMRNY — higher, 1.77
- ISKKFGDMSYSIRHSISMPAMRNV — higher, 2.24
- ISKKFGDMSYSIRHSISMPAMRNQ — higher, 1.76
- ISKKFGDMSYSIRHSISMPAMRNW — lower, 1.44
- ISKKFGDMSYSIRHSISMPAMRNR — higher, 2.67
- ISKKFGDMSYSIRHSISMPAMRNA — higher, 2.63
- ISKKFGDMSYSIRHSISMPAMRNE — higher, 2.15
- ISKKFGDMSYSIRHSISMPAMRNM — higher, 1.82
- ISKKFGDMSYSIRHSISMPAMRND — higher, 2.61
- ISKKFGDMSYSIRHSISMPVMRNS — higher, 2.95
- ISKKFGDMSYSIRHSISMPFMRNS — higher, 2.2
- ISKKFGDMSYSIRHSISMPMMRNS — higher, 1.95
- ISKKFGDMSYSIRHSISMPIMRNS — higher, 2.67
- ISKKFGDMSYSIRHSISMPHMRNS — higher, 2.28
- ISKKFGDMSYSIRHSISMPGMRNS — higher, 1.67
- ISKKFGDMSYSIRHSISMPDMRNS — higher, 3.36
- ISKKFGDMSYSIRHSISMPLMRNS — higher, 1.93
- ISKKFGDMSYSIRHSISMPNMRNS — higher, 2.58
- ISKKFGDMSYSIRHSISMPTMRNS — higher, 2.58
- ISKKFGDMSYSIRHSISMPEMRNS — higher, 2.58
- ISKKFGDMSYSIRHSISMPPMRNS — higher, 2.36
- ISKKFGDMSYSIRHSISMPYMRNS — higher, 2.17
- ISKKFGDMSYSIRHSISMPKMRNS — higher, 2.35
- ISKKFGDMSYSIRHSISMPWMRNS — higher, 2.13
- ISKKFGDMSYSIRHSISMPQMRNS — higher, 2.26
- ISKKFGDMSYSIRHSISMPSMRNS — higher, 2.04
- ISKKFGDMSYSIRHSISMPRMRNS — higher, 2.24
- ISKKFGDMSYSIRHSISMPCMRNS — higher, 2.38

Reference: the supplement of paper PMC10567573
